Our source for the binding and Kd values is article PMC11077950.

Data set [1] concerns the target T1, NfxB T39R T51R (Pseudomonas aeruginosa PAO1) (UniProt P32265).
T1 sequence: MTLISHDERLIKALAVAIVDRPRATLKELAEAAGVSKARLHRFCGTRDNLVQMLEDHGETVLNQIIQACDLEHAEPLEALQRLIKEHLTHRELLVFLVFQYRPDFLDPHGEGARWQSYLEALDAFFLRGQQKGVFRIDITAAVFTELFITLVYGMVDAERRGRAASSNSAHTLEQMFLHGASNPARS
Put plainly: EMSA. Conditions: EMSA: PBS (137 mM NaCl, 2.7 mM KCl, 8 mM Na2HPO4, 2 mM KH2PO4), 2 uL glycerin in 20 uL, 80 ng DNA, 5-70 pmol protein, 25 C, 30 min, SPR: PBS, 30 uL/min …. On the technique in general: A gel shift assay detects complexes by their altered migration in electrophoresis.

A further data set concerns TNfxB3. Put plainly: SPR. Conditions: EMSA: PBS (137 mM NaCl, 2.7 mM KCl, 8 mM Na2HPO4, 2 mM KH2PO4), 2 uL glycerin in 20 uL, 80 ng DNA, 5-70 pmol protein, 25 C, 30 min, 30 uL/min ….

Take “CTCATCGGCAGCAGTTAAATCCATCGGTCACTCTTTATCTATCGCGGGCAGATGCGGGTATTTTGCCTAGAACACTCATTTTTCTCAAAGAGGATACTAGCTTTGTTCACACCAAAATCAAATGAGTCAATATTGACTTATTTGATTTTTGCGTGGATCATGCGCGGCTTCGACTACGTACTGGCTTCGTGCTTGGGTGAGATATGAACAAATTCCGCGAATGGATCAC (double strand) [tnfxB1-tmexC1 intergenic DNA (PtmexC1), EMSA]”: in data set [1], the binding entry is reported as “binds more weakly”.
The term Kd denotes a measure of binding affinity in units of concentration. Read a high Kd as a looser complex. “ATACTAGCTTTGTTCACACCAAAATCAAATGAGTCAATATTGACTTATTTGATTTTTGCGTGGATCATGCGCGGCTTCGAC (double strand) [SPR operator DNA with two inverted repeats, 81 bp]” showed a Kd in the data set with TNfxB3 of 917 nM.
